Measurements from the supplement of paper PMC12042874.
± gives the uncertainty stated by the source.

assay: amyloid nucleation score (Sup35N fusion, yeast selection) (log enrichment); library NNK1; higher = more nucleation; inactive = no reads after selection
In short: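 Output and input plasmid inserts were sequenced by Illumina after psi-negative yeast carrying Sup35N fused to peptides of 20 random codons had been induced 24 hours with 100 μM copper sulfate and grown 7 days at 30°C on medium lacking adenine and uracil. The nucleation score is the DiMSum log enrichment of output over input reads, centred on the mode score of non-aggregating sequences. Sequences with under 100 input reads were excluded.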

Substance	amyloid nucleation score
FYAVVFYYDTDSAARCRFC	6.32 ± 0.075
WEGGGMGNYVQRHACARHKV	0.125 ± 0.3
YSNWGHVSRWFLRFIVVFFI	0.459 ± 0.64
GSMLLHLIILSILFFDRVES	0.148 ± 0.29
NLTCSLMVCRWFPIPVL	0.171 ± 0.38
YNIALCINSQVRESRRPVGV	5.24 ± 0.072
RIKRILFFYSVRIWDLSDG	2.52 ± 0.12
FHFVGLSVTVVLLSFWGWNT	0.78 ± 0.52
CNGAGNLEGDGF	0.317 ± 0.33
VNLHWGSDEAVSIARDIYTW	0.533 ± 0.29
YGFLVKS	0.1 ± 0.9
LYEDLWFRVREL	1.11 ± 0.63
PTRLLLVSDRVTVHELF	inactive
GYEDRRSRCSIWVVRFLNVL	-0.605 ± 0.8
AGAWIVDVTGKSMERYVGNK	0.133 ± 0.61
TYWYSVRNVAQLCPVEGYQS	-0.102 ± 0.7
VASRFVCWCRGQAQWVSQCN	0.434 ± 0.45
FINAYRMFWIGYCNLFSLFL	1.38 ± 0.52
LWLAFIIES	0.338 ± 0.25
NRRLIIVNFVQSKDTCEWRG	2.77 ± 0.21
RCILRSTSFRAVAWM	0.771 ± 0.67
LKPLRKFRSNVNMR	inactive
SRLWSSCHCHLAAYSVIHDD	inactive
MITSR	1.11 ± 0.53
EGATWIFQYLAGGVG	-0.534 ± 0.34

Substance	amyloid nucleation score
VSVSNISSVLTLSGKMLIST	-0.031 ± 0.39
YRVFASNCEFYSRCKYLYLL	0.029 ± 1.6
NEFEVCG	0.108 ± 0.25
SNWLFWFIKMGQFQDSICYA	-0.616 ± 1.4
SSFDMRDILYLSSNILRSRM	-0.505 ± 0.35
NFPLVSFFTNCSNKE	inactive
LRTRDQSGFSAVIYSKNPRA	0.106 ± 0.51
DFSRWIFMTHY	-1.06 ± 0.99
WYYITS	0.295 ± 0.67
ERVAQKILHLKSMPITARPV	0.002 ± 1.1
HLSLGINVPTCFLSEKALLV	1.25 ± 0.68
PVDNYFIMTTHDKLNRPGHD	-1.85 ± 1
GISFP	-0.737 ± 0.31
TFSMSQNWVLNCAYLVIGYH	4 ± 0.14
FSRKINVYG	-0.396 ± 0.66
GKSKAAQFN	-0.318 ± 0.31
FPWVCIVVCERTS	3.41 ± 0.17
LDWSMLRTELVIGILRSGRE	0.248 ± 0.52
LGFVRLGGSCHITIDSGACV	-0.386 ± 1
PNNKE	0.638 ± 0.33
SKLKAYICLCRMEIVLIPRF	-0.978 ± 1.7
CQIFGNFWWKCIVGCRQIRF	inactive
SFMAVSKGFMTIISSYYLC	-0.662 ± 0.32
YILPFFGRHYNRHGVFAGAM	-0.647 ± 0.9
TPSLLVAVRILAAVMPSWET	-0.746 ± 0.43

Substance	amyloid nucleation score
VGSGSDQQYALMSNLYSKLS	1.02 ± 0.7
HESLWKFESSFADKNRTVWN	1.32 ± 0.45
VIGSMVGLI	0.668 ± 0.31
DRYVYEFSYVLFWLFILVM	0.128 ± 0.44
YYDSGVSPAVQSPECSTSGA	0.186 ± 0.93
MLANSLFFT	-1.23 ± 1.6
NLRFRRYTLVSGMQGNKIWH	-0.234 ± 0.48
QYMKLGFNPCKTMVVLFLCC	4.16 ± 0.062
RNLIGLV	0.318 ± 0.68
RYMVSCRGGGKWQPPLFDMR	1.23 ± 0.66
PVRVYIGGEDACMKSTKHMY	5.65 ± 0.085
ALLESGCWSMWFVSFRFELA	-0.119 ± 0.76
GVHSTEKNEWTQTFQSGR	-0.103 ± 0.98
RIMPEKGRNSHWMYIRVQER	1.12 ± 0.58
VIIAEVDVVA	-0.186 ± 0.57
KSSWSSAS	-0.076 ± 0.3
LLCLLYHAGGTKRGYTTWAS	-0.133 ± 1.2
SLTAVISTKVL	-0.663 ± 1.7
CMHFVYNIKVRIIPDEYDHS	4.6 ± 0.091
ALYPPAGAGLRECRARSLSA	0.341 ± 0.5
PLRNRNCVPYPHDCLSTSLI	-0.816 ± 1.3
NLMNWRLYDLTGLAAWDQYS	-0.841 ± 0.98
FGTGFSLCKFFCLAMRPSDV	5.25 ± 0.08
YFLTFRFCFSVNEVIDPWCA	-0.725 ± 1.1
AGYGFKCMGYRLDLKTPFVY	0.019 ± 0.59

Substance	amyloid nucleation score
LPYTHFGDDLIGITQDGLRV	-0.035 ± 0.43
YPSVADRHAILHR	0.219 ± 0.74
KCGIVVNVQHRKPRGRIPAQ	-1.02 ± 0.67
DIMKSSKAHELVQSLPIEKR	0.248 ± 0.64
STLSMTHVASAAVWRLVMPR	1.41 ± 0.48
NRISALWSTMLWFAY	-0.008 ± 0.27
SGCSRRCWLGSRPGSWGACC	0.698 ± 0.45
ANISSGKFVRGSCENLARLR	-0.805 ± 0.59
FREVMTGSNYRPTC	0.158 ± 0.64
RTYKINGQSKFSLACITTLS	-0.125 ± 0.7
DYRYTNCCWQSPKRRGWQSY	0.967 ± 0.59
WLAFWCDLGVSSSFFWAFCG	-0.066 ± 0.37
RGNACVT	0.598 ± 0.34
FSLVATGSYITLDSVLMDVL	0.728 ± 0.44
PYLSRTRISIVNMCSICGLI	1.34 ± 0.44
VYWRFPRSNGEWYNMLVLKD	-0.576 ± 0.53
GCFIVR	-0.768 ± 0.98
ACFPLQVKDCYKCLGHLRAV	0.315 ± 0.29
GTSLRSGWRYCEFTRRSCLV	0.068 ± 0.6
LLVSTVRVNGQI	-0.016 ± 0.42
LSPLDIPTRDLPIFLTFKDT	inactive
RGCRGSRQSVGSKR	-0.166 ± 0.31
SVYSVAFR	0.184 ± 0.78
AFGLMNCDRLSLTSNINTGG	-0.4 ± 0.41
SFNHYMFLYFVISGWSSPQA	1.1 ± 0.55

Substance	amyloid nucleation score
FLPQAAWCKLYLIKLLNPPL	1.1 ± 0.98
SLRFPKKGYVTRCTAWYLGV	3.45 ± 0.083
IAAVFHCKNSLMY	2 ± 0.2
INMYWY	-0.031 ± 0.31
DLHLTNVSTRARPRLGLAAR	0.705 ± 0.56
GFLTVNYWHSEV	0.065 ± 0.21
QTRRYTVNCLL	inactive
NLEHKCVFVLHMKTLIISQP	0.664 ± 1.2
LWSVCLVTSVQKDAGVLPSG	0.85 ± 0.62
RDGAVFYFMEVRVSYRFLTN	-0.392 ± 0.7
MDACCMFNVWLVSECGFRVH	5.81 ± 0.064
TFKRYI	1.28 ± 0.56
SNSLLQGVTIWPNYPLCGNL	0.464 ± 0.53
VFPDASSMRVRGGIDTAQEL	0.037 ± 0.46
GHLSA	inactive
STFAPNTSFGTIEIRFWICV	-0.702 ± 1.1
RPILLSSLPIHSERMWSTSL	-0.257 ± 1.4
NYAYCSLVVEDSVK	8.284 ± 0.063
GVTMVISPPYVMAGRSDMFL	-0.031 ± 0.65
YVVNYYNRQSIGCFVWTWRR	8.169 ± 0.05
HWWVGKRLLLHPWVA	0.224 ± 0.31
SYVIGNTGGSIKSEARGWDI	0.071 ± 0.35
QKNCT	1.01 ± 0.34
VGNRSFNIFGTMCKMLQWTE	-0.715 ± 1.1
CEFGSGQALIYGYTMYTWTT	0.703 ± 0.49

Substance	amyloid nucleation score
VDVSNLKCLQE	0.335 ± 0.42
YGLATFMGKES	-0.104 ± 0.85
WNHFERMEKPA	-0.639 ± 1.2
VYAMGIHWRFCAKKRIMSG	-0.802 ± 1.7
YVFNFLIMLLLGVA	-0.665 ± 0.32
WHPYYIQVKGILALLSSVHH	3.18 ± 0.073
GLDRTHYPFALNGCLLSTVS	0.676 ± 0.55
AWHEGFHCCN	1.21 ± 0.31
YIAQSFELKA	0.23 ± 0.53
VGNVRPVFDTALTTWRRCCF	0.223 ± 0.49
VAGGDHAAHWKLAVKNPPPS	0.1 ± 0.56
LVCVFAWLFP	7.41 ± 0.075
MVSNAGDIPMRRLESLRLLR	0.748 ± 0.53
INLNRHGSLE	1.6 ± 0.39
LAWIGFRYRDGMKYGVHWGR	-0.522 ± 1.2
FGNSCSADSNRYQIKYTMIK	0.155 ± 0.45
TWKLATCIWRSLF	-0.238 ± 0.21
VRDGDTMILGVYRNIWGTNV	0.429 ± 0.24
IRTMSGNDKPI	-0.36 ± 0.33
DFASVEFWLIALPSQMCWFF	0.056 ± 0.76
SPESRRQWCL	inactive
RYARWYTQCWTKQRVWRPLD	0.984 ± 0.3
VRNWCVGSTVARRYHWMTCP	0.413 ± 0.58
NLACGFKSWDFKRMRD	0.685 ± 0.51
TLSLFLRKGSRTLRCVCPRG	-0.112 ± 0.33

Substance	amyloid nucleation score
RVIGTGYECTNATEDSLSYL	inactive
GFMERLASIYTFFWGVDSK	-0.339 ± 1.2
TGSMVFLMVVAGSCLFGLSE	0.652 ± 0.24
GLNYLNFTREYYHLTWVVVP	4.47 ± 0.091
VGDKQFHTKYMVA	0.031 ± 1.1
DVMAVCGIGRKYLIWYSCVR	-1.54 ± 0.79
VGIPGGWIQNITFSSMKDFF	4.9 ± 0.065
PAQEA	0.126 ± 0.45
TRMRLPP	-0.299 ± 0.48
MEKLGAPYRFREPGMFVRFF	-1.1 ± 0.62
GCDGATVAGGTNYPDQMYSF	0.786 ± 0.74
LHCFMWFFHIDN	7.456 ± 0.057
ISFCGTRGFK	0.154 ± 0.75
VILSCSLLFCFNRSWGLGNE	7.04 ± 0.067
LYKEMTWRNWALSLKMSLRR	0.146 ± 0.5
PYFINST	1.75 ± 0.53
RMLIYVQFTRRDKVSNPLM	-0.685 ± 0.33
IYTVVRAVCMGPGSGWLFRK	-1.05 ± 1.2
YYWIYVIPSIFSIF	5.5 ± 0.088
PLWAPNSSNFAINRNQWRFN	0.11 ± 0.57
DVRAWVMARVGRGSELGARG	0.075 ± 0.84
AIDRVSYHVKVVRGHINSKF	inactive
